Target: ASCL2 DBD wild type (human, UniProt Q99929 50-102)
Assay: EMSA; preferred over CACGTG probe; 32P EMSA: ~50 nM probe, 0.5/1/2 uM protein, 30 min, reagents as in Feng et al., gel at 4 C; fluorescent EMSA: 5x buffer (50 mM Tris pH 7.5, 250 mM NaCl, 5 mM MgCl2, 20% glycerol, 2.5 mM DTT, 2.5 mM EDTA, 250 ug/ml poly(dI-dC), 1 mg/ml BSA) used at 1x plus half volume protein dialysis buffer (20 mM HEPES pH 7.9, 200 mM NaCl, 10% glycerol, 2 mM MgCl2), gel 0.5x TBE at 4 C
Conditions: protein: recombinant; tags: N-terminal 6xHis; mScarlet fusion; chain copies: 2; label: 32P (SRI primer strand); blunt

ASCL2 DBD wild type, sequence (Q99929 50-102): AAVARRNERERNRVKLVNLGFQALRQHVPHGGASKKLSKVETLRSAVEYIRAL

B1: CAGCTG probe (dsDNA)
DNA 1: TAGCCAATAACTTCGTCCCTCAGCTGCATATAAGGAAGATCTAACCACCAATTTGG
DNA 2: CCAAATTGGTGGTTAGATCTTCCTTATATGCAGCTGAGGGACGAAGTTATTGGCTA
binding result: binds

Reference: PMC12392098, “Predicting the DNA binding specificity of transcription factor mutants using family-level biophysically interpretable machine learning”
